Patent publication US20240209076A1 (KODIAK SCIENCES, published 2024)

Tests used:
recombinant human IL-6 [1] = target: T1, recombinant human IL-6 (human, UniProt P05231 30-212); assay: SPR Biacore, purified Ab on Protein A chip, IL-6 analyte, 37 C
T1 construct: Bought protein
Method: Antibodies were captured on a Protein A chip (GE) by injecting 1:20 dilution of cell supernatant at 10 μL/min for 60 seconds. […] The sensor chip was regenerated by a 60 seconds injection of 10 mM Glycine pH 1.7 at flow rate of 50 μL/min. […] For this setup, 1 μg/mL of purified antibody was injected over a Protein A chip at 10 μL/min for 25-28 seconds. Data analysis for supernatant and purified samples were performed using BIAevaluation software (GE). All sensorgrams were double reference subtracted and fit using a 1:1 Langmuir binding model.

recombinant human IL-6 [2] = target: T1, recombinant human IL-6; assay: SPR Biacore, supernatant Ab on Protein A chip, IL-6 analyte, 25 C

T1 sequence (P05231 30-212 limits assumed): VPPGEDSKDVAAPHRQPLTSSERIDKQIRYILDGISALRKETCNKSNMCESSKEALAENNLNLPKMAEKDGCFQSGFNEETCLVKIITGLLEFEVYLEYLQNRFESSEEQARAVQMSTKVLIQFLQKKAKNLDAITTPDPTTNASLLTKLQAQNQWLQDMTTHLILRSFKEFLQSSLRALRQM

B1: anti-IL-6 antibody, heavy chain variant II (M34W, G66D, I108V) / light chain variant IV (M32L, M50A, N52S, M88Q) (antibody, V domains shown)
VH: EVQLVESGGGLVQPGGSLRLSCAASGFTFSPFAWSWVRQAPGKGLEWVAKISPGGSWTYYSDTVTDRFTFSLDTSKSTAYLQMNSLRAEDTAVYYCARQLWGYYALDVWGQGTLVTVSS
VL: DIQLTQSPSSLSASVGDRVTITCSASISVSYLYWYQQKPGKAPKLLIYDASSLASGVPSRFSGSGSGTDFTLTISSLQPEDFATYYCQQWSGYPYTFGQGTKVEIK
notes: See note of m39; also called M34W, G66D, I108V/ M32L, M50A, N52S, M88Q; II/IV
- Kd (recombinant human IL-6 [1]): 0.615 nM
- koff (recombinant human IL-6 [1]): 0.000652 s⁻¹
- kon (recombinant human IL-6 [1]): 1.08e+06 M⁻¹ s⁻¹
- Kd (recombinant human IL-6 [2]): 0.297 nM
- koff (recombinant human IL-6 [2]): 0.00117 s⁻¹
- kon (recombinant human IL-6 [2]): 559000 M⁻¹ s⁻¹

B2: anti-IL-6 antibody, light chain M88A (heavy chain WT) (antibody, V domains shown)
VH: EVQLVESGGGLVQPGGSLRLSCAASGFTFSPFAMSWVRQAPGKGLEWVAKISPGGSWTYYSDTVTGRFTFSLDTSKSTAYLQMNSLRAEDTAVYYCARQLWGYYALDIWGQGTLVTVSS
VL: DIQLTQSPSSLSASVGDRVTITCSASISVSYMYWYQQKPGKAPKLLIYDMSNLASGVPSRFSGSGSGTDFTLTISSLQPEDFATYYCAQWSGYPYTFGQGTKVEIK
notes: See note of m2; also called WT / M88A
- Kd (recombinant human IL-6 [1]): 2.25 nM
- koff (recombinant human IL-6 [1]): 0.00132 s⁻¹
- kon (recombinant human IL-6 [1]): 586000 M⁻¹ s⁻¹
- Kd (recombinant human IL-6 [2]): 0.282 nM
- koff (recombinant human IL-6 [2]): 0.000127 s⁻¹
- kon (recombinant human IL-6 [2]): 451000 M⁻¹ s⁻¹

B3: anti-IL-6 antibody, light chain M32V (heavy chain WT) (antibody, V domains shown)
VH: EVQLVESGGGLVQPGGSLRLSCAASGFTFSPFAMSWVRQAPGKGLEWVAKISPGGSWTYYSDTVTGRFTFSLDTSKSTAYLQMNSLRAEDTAVYYCARQLWGYYALDIWGQGTLVTVSS
VL: DIQLTQSPSSLSASVGDRVTITCSASISVSYVYWYQQKPGKAPKLLIYDMSNLASGVPSRFSGSGSGTDFTLTISSLQPEDFATYYCMQWSGYPYTFGQGTKVEIK
notes: See note of m2; also called WT / M32V
- Kd (recombinant human IL-6 [1]): 0.429 nM
- koff (recombinant human IL-6 [1]): 0.000369 s⁻¹
- kon (recombinant human IL-6 [1]): 861000 M⁻¹ s⁻¹
- Kd (recombinant human IL-6 [2]): 0.23 nM
- koff (recombinant human IL-6 [2]): 0.000116 s⁻¹
- kon (recombinant human IL-6 [2]): 505000 M⁻¹ s⁻¹

B4: anti-IL-6 antibody, heavy chain variant II (M34W, G66D, I108V) / light chain variant V (M32L, M50D, M88Q) (antibody, V domains shown)
VH: EVQLVESGGGLVQPGGSLRLSCAASGFTFSPFAWSWVRQAPGKGLEWVAKISPGGSWTYYSDTVTDRFTFSLDTSKSTAYLQMNSLRAEDTAVYYCARQLWGYYALDVWGQGTLVTVSS
VL: DIQLTQSPSSLSASVGDRVTITCSASISVSYLYWYQQKPGKAPKLLIYDDSNLASGVPSRFSGSGSGTDFTLTISSLQPEDFATYYCQQWSGYPYTFGQGTKVEIK
notes: See note of m39; also called M34W, G66D, I108V/ M32L, M50D, M88Q; II/V
- Kd (recombinant human IL-6 [1]): 0.465 nM
- koff (recombinant human IL-6 [1]): 0.000627 s⁻¹
- kon (recombinant human IL-6 [1]): 1.34e+06 M⁻¹ s⁻¹
- Kd (recombinant human IL-6 [2]): 0.231 nM
- koff (recombinant human IL-6 [2]): 0.000271 s⁻¹
- kon (recombinant human IL-6 [2]): 700000 M⁻¹ s⁻¹

B5: anti-IL-6 antibody, light chain M50D (heavy chain WT) (antibody, V domains shown)
VH: EVQLVESGGGLVQPGGSLRLSCAASGFTFSPFAMSWVRQAPGKGLEWVAKISPGGSWTYYSDTVTGRFTFSLDTSKSTAYLQMNSLRAEDTAVYYCARQLWGYYALDIWGQGTLVTVSS
VL: DIQLTQSPSSLSASVGDRVTITCSASISVSYMYWYQQKPGKAPKLLIYDDSNLASGVPSRFSGSGSGTDFTLTISSLQPEDFATYYCMQWSGYPYTFGQGTKVEIK
notes: See note of m2; also called WT / M50D
- Kd (recombinant human IL-6 [1]): 0.311 nM
- koff (recombinant human IL-6 [1]): 0.000464 s⁻¹
- kon (recombinant human IL-6 [1]): 1.49e+06 M⁻¹ s⁻¹
- Kd (recombinant human IL-6 [2]): 0.138 nM
- koff (recombinant human IL-6 [2]): 0.000112 s⁻¹
- kon (recombinant human IL-6 [2]): 806000 M⁻¹ s⁻¹

B6: anti-IL-6 antibody, light chain M88V (heavy chain WT) (antibody, V domains shown)
VH: EVQLVESGGGLVQPGGSLRLSCAASGFTFSPFAMSWVRQAPGKGLEWVAKISPGGSWTYYSDTVTGRFTFSLDTSKSTAYLQMNSLRAEDTAVYYCARQLWGYYALDIWGQGTLVTVSS
VL: DIQLTQSPSSLSASVGDRVTITCSASISVSYMYWYQQKPGKAPKLLIYDMSNLASGVPSRFSGSGSGTDFTLTISSLQPEDFATYYCVQWSGYPYTFGQGTKVEIK
notes: See note of m2; also called WT / M88V
- Kd (recombinant human IL-6 [1]): 0.713 nM
- koff (recombinant human IL-6 [1]): 0.000441 s⁻¹
- kon (recombinant human IL-6 [1]): 619000 M⁻¹ s⁻¹
- Kd (recombinant human IL-6 [2]): 0.239 nM
- koff (recombinant human IL-6 [2]): 0.000107 s⁻¹
- kon (recombinant human IL-6 [2]): 448000 M⁻¹ s⁻¹

B7: anti-IL-6 antibody, light chain D49E (heavy chain WT) (antibody, V domains shown)
VH: EVQLVESGGGLVQPGGSLRLSCAASGFTFSPFAMSWVRQAPGKGLEWVAKISPGGSWTYYSDTVTGRFTFSLDTSKSTAYLQMNSLRAEDTAVYYCARQLWGYYALDIWGQGTLVTVSS
VL: DIQLTQSPSSLSASVGDRVTITCSASISVSYMYWYQQKPGKAPKLLIYEMSNLASGVPSRFSGSGSGTDFTLTISSLQPEDFATYYCMQWSGYPYTFGQGTKVEIK
notes: See note of m2; also called WT / D49E
- Kd (recombinant human IL-6 [1]): 0.624 nM
- koff (recombinant human IL-6 [1]): 0.000417 s⁻¹
- kon (recombinant human IL-6 [1]): 668000 M⁻¹ s⁻¹
- Kd (recombinant human IL-6 [2]): 0.241 nM
- koff (recombinant human IL-6 [2]): 0.000111 s⁻¹
- kon (recombinant human IL-6 [2]): 459000 M⁻¹ s⁻¹
